Assay results published in patent US20220074937A1.

What was measured:
[1] = molecular target: CD19 CAR containing FMC63 scFv, on the cell surface (CD19 CAR-T cells, CD19 CAR-293T cells); test: flow cytometry, CAR positive cells unmixed; AF488-CD19sIg1-4 against SSC-A; data reproduced from De Oliveira SN, et al., J Transl Med, 2013
[2] = molecular target: CD19 CAR containing FMC63 scFv, on the cell surface (CD19 CAR-T cells, CD19 CAR-293T cells); test: flow cytometry, CAR positive cells diluted 1:8 in negative cells; AF488-CD19sIg1-4 against SSC-A; data reproduced from De Oliveira SN, et al., J Transl Med, 2013
[3] = molecular target: CD19 CAR containing FMC63 scFv, on the cell surface (CD19 CAR-T cells, CD19 CAR-293T cells); test: flow cytometry, CAR positive cells diluted 1:16 in negative cells; AF488-CD19sIg1-4 against SSC-A; data reproduced from De Oliveira SN, et al., J Transl Med, 2013
[4] = molecular target: CD19 CAR containing FMC63 scFv, on the cell surface (CD19 CAR-T cells, CD19 CAR-293T cells); test: flow cytometry, CAR positive cells diluted 1:32 in negative cells; AF488-CD19sIg1-4 against SSC-A; data reproduced from De Oliveira SN, et al., J Transl Med, 2013
[5] = molecular target: CD19 CAR containing FMC63 scFv, on the cell surface (CD19 CAR-T cells, CD19 CAR-293T cells); test: flow cytometry, CAR positive cells diluted 1:64 in negative cells; AF488-CD19sIg1-4 against SSC-A; data reproduced from De Oliveira SN, et al., J Transl Med, 2013
[6] = molecular target: CD19 CAR containing FMC63 scFv, on the cell surface (CD19 CAR-T cells, CD19 CAR-293T cells); test: flow cytometry, CAR positive cells diluted 1:128 in negative cells; AF488-CD19sIg1-4 against SSC-A; data reproduced from De Oliveira SN, et al., J Transl Med, 2013

CD19 CAR containing FMC63 scFv, on the cell surface (CD19 CAR-T cells, CD19 CAR-293T cells), sequence (chain, as listed by the source): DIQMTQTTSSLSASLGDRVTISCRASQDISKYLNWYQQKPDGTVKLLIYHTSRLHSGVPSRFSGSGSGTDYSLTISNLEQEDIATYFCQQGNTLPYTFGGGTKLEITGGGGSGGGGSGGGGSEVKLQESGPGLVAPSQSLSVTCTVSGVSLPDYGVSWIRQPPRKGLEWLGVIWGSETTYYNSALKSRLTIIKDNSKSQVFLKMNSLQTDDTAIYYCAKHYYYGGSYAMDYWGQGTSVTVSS

CD19/Fc (Fc fusion)
% of cells in the AF488-CD19sIg1-4 positive gate, CAR positive cell (unmixed) [1]: 65.9% | % of cells in the AF488-CD19sIg1-4 positive gate, 1:8 [2]: 9.24% | % of cells in the AF488-CD19sIg1-4 positive gate, 1:16 [3]: 4.28% | % of cells in the AF488-CD19sIg1-4 positive gate, 1:32 [4]: 2.96% | % of cells in the AF488-CD19sIg1-4 positive gate, 1:64 [5]: 1.34% | % of cells in the AF488-CD19sIg1-4 positive gate, 1:128 [6]: 0.646%
